Molecular target: T1, IL-22 receptors R1 and R2 on HEK-Blue IL-22 reporter cells (UniProt Q8N6P7)
T1 sequence (looked up) 1: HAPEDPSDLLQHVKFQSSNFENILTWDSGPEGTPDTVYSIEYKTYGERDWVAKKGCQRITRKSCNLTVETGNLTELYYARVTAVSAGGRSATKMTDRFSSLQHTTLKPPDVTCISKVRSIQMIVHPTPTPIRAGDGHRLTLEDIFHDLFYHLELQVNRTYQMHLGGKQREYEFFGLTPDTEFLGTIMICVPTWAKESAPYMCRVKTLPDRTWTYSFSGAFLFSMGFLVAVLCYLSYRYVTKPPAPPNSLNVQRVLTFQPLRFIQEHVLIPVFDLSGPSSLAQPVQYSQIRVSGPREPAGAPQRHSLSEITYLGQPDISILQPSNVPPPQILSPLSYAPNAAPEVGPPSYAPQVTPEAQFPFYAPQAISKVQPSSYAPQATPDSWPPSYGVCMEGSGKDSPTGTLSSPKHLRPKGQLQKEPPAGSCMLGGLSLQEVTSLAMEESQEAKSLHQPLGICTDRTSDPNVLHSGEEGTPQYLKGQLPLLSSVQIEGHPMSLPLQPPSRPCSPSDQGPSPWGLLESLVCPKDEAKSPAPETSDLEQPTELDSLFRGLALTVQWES
T1 sequence (looked up) 2: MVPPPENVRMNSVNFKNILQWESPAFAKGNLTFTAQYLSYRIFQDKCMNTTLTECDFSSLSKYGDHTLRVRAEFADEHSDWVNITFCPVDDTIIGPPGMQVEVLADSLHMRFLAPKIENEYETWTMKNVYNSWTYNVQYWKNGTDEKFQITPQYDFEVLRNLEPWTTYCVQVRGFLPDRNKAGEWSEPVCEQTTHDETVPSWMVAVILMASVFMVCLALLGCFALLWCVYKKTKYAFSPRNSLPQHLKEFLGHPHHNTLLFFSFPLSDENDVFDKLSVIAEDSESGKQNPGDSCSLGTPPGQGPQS
Assay: cell-based or functional assay

- Kd (apparent, HEK-Blue IL-22 reporter): 0.017 nM
B1: IL22 WT (monomeric IL22 based on the IL22 crystal, PDB 3dlq, expressed in bacteria) (ligand)
chain: ARLDKSNFQQPYITNRTFMLAKEASLADNNTDVRLIGEKLFHGVSMSERCYLMKQVLNFTLEEVLFPQSDRFQPYMQEVVPFLARLSNRLSTCHIEGDDLHIQRNVQKLKDTVKKLGESGEIKAIGELDLLFMSLRNACI

Source: patent US20260008830A1
